# Results: IntAct's records for PubMed 19523899
# B1: Tyrosine-protein phosphatase non-receptor type 23 (Mus musculus), Q6PB44 (parent)
# chain: MEAVPRMPMIWLDLKEAGDFHFQSAVKKFVLKNYGENPEAYNEELKKLELLRQNAIRVARDFEGCSVLRKYLGQLHYLQSRVPMGSGQEAAVAVTWTEIFSGKSVSHEDIKYEQACILYNLGALHSMLGAMDKRVSEEGMKVSCTHFQCAAGAFAYLREHFPQAFSVDMSRQILTLNVNLMLGQAQECLLEKSMLDNRKSFLVARISAQVVDYYKEACRALENPDTASLLGRIQKDWKKLVQMKIYYFAAVAHLHMGKQAEEQQKFGERVAYFQSALDKLNEAIKLAKGQPDTVQDALRFAMDVIGGKYNSAKKDNDFIYHEAVPALDTLQPVKGAPLVKPLPVNPTDPAVTGPDIFAKLVPMAAHEASSLYSEEKAKLLREMLAKIEDKNEVLDQFMDSMQLDPETVDNLDAYNHIPPQLMEKCAALSVRPDTVKNLVQSMQVLSGVFTDVEASLKDIRDLLEEDELQEQKLQETLGQAGAGPGPSVAKAELAEVRREWAKYMEVHEKASFTNSELHRAMNLHVGNLRLLSGPLDQVRAALPTPALTPEDKAVLQNLKRILAKVQEMRDQRVSLEQQLRELIQKDDITASLVTTDHSEMKKLFEEQLKKYDQLKVYLEQNLAAQDNVLRALTEANVQYAAVRRVLSELDQKWNSTLQTLVASYEAYEDLMKKSQEGKDFYADLESKVATLLERAQSICRAQEAARQQLLDRELKKKAPPPRPTAPKPLLSRREEGEAVEAGDTPEELRSLPPDMMVGPRLPDPFLGTTAPLHFSPGPFPSSTGPATHYLSGPLPPGTYSGPTQLMQPRAAVPMAPATVLYPAPAYTSELGLVPRSSPQHGIVSSPYAGVGPPQPVVGLPSAPPPQLSGPELAMTVRPATTTVDSVQAPISSHTAPRPNPTPALPQPCFPVPQPVPQSVPQPQPLPVPYTYSIGTKQPLPAPYTYSIGTKQHLTGPLPQHQFPPGIPTGFPVPRTGPQAQAQPQPQPQPQPQPQPQPQPQPQPQSQSQPQPQPQPQPQRPAFGPQPTQQPLPFQHPHLFPSQAPGILPPPPPTPYHFTPQPGVLGQPPPTLHTQLYPGPSQDPLPPHSGALPFPSPGPPHPHPTLAYGPAPSPRPLGPQATPVSIRGPPPASQPTPSPHLVPSPAPSPGPGPVPSRPPTAEPPPCLRRGAAAADLLSSSPESQHGGTQPPGGGQPLLQPTKVDAAEGRRPQALRLIEQDPYEHPERLQQLQQELEAFRGQLGDAGALDAIWRELQEAQEHDARGRSIAIARCYSLKNRHQDVMPYDSNRVVLRSGKDDYINASCVEGLSPYCPPLVATQAPLPGTAADFWLMVHEQKVSVIVMLVSEAEMEKQKVARYFPTERGQPMVHGALSVALSSIRTTETHVERVLSLQFRDQSLKRSLVHLHFPTWPELGLPDSPGNLLRFIQEVHAHYLHQRPLHTPIVVHCSSGVGRTGAFALLYAAVQEVEAGNGIPELPQLVRRMRQQRKHMLQEKLHLKFCHEALVRHVEQVLQRHGVPPPGKPVASVNISQKNHLPQDSQDLVLGGDVPISSIQATIAKLSIRPLGGLDSPAASLPGLVEPPGLPPASLPESTPVPSSSPPPLSSPLPEAPQPEEEPSVPEAPSLGPPSSSLELLASLTPEAFSLDSSLRGKQRMSKQNFLQAHNGQGLRAAQPTDDPLSLLDPLWTLNKT
# partner: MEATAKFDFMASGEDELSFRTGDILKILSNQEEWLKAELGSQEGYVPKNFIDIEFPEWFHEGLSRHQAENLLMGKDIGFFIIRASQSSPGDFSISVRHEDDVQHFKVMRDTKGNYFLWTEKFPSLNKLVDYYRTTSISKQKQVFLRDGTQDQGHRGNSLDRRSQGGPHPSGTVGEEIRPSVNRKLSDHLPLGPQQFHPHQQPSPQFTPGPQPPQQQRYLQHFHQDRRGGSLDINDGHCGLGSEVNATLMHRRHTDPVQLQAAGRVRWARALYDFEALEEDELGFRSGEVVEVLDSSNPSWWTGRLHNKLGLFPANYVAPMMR
# Variants of: B1
# Details: with grap2_mouse Grap2, O89100
row,effect of a mutation on the interaction,Variant
1,decreasing interaction strength,K727A
2,decreasing interaction strength,K727H
3,disrupting interaction,P720A;R722A
4,decreasing interaction,R722A
5,disrupting interaction strength,K727A;P728A
